Each block holds one molecule with its values, some of them ahead of it.
Experiments:
Test in all cases: SEC; purified, untagged mature regions of the proteins analysed by size exclusion chromatography; SDS-PAGE with and without β-mercaptoethanol was run alongside
[1] = target: Bacillus amyloliquefaciens BslA(42-181) (Bacillus amyloliquefaciens FZB42)
[2] = target: Bacillus licheniformis BslA(40-179) (Bacillus licheniformis DSM13)
[3] = target: Bacillus pumilus BslA(37-177) (Bacillus pumilus SAFR-032)
[4] = target: the molecule itself

Molecule: Bacillus amyloliquefaciens BslA(42-181) (domain or fragment)
stoichiometry N [1]: 2

B1: Bacillus subtilis BslA(42-181) (domain or fragment, B. subtilis, UniProt P71014 42-181, looked up)
chain: MRTQSTASLFATITGASKTEWSFSDIELTYRPNTLLSLGVMEFTLPSGFTANTKDTLNGNALRTTQILNNGKTVRVPLALDLLGAGEFKLKLNNKTLPAAGTYTFRAENKSLSIGNKFYAEASIDVAKRSTPPTQPCGCN
notes: BslA of Bacillus subtilis, truncated protein BslA 42-181 (mature region), on which the previous analyses were based; also called Bs-BslA; source: E. coli BL21 (DE3) pLysS, purified (Glutathione Sepharose, TEV cleavage, SEC)
stoichiometry N [4]: 2

Other lines, results leading:

stoichiometry N [2]: 2
Molecule: Bacillus licheniformis BslA(40-179) (domain or fragment)

stoichiometry N [3]: 2
Molecule: Bacillus pumilus BslA(37-177) (domain or fragment)
